Test results as given in article PMC6600395, “p53 Binds Preferentially to Non-B DNA Structures Formed by the Pyrimidine-Rich Strands of GAA·TTC Trinucleotide Repeats Associated with Friedreich’s Ataxia”.

Experiments:
[1] = target: T1, p53 (wild type, full length) (human, UniProt P04637 1-393); assay: EMSA; stronger than TTCNB and FXN-ANB; 50 ng pBSK/SmaI; EMSA: 5 mM Tris-HCl pH 7.6, 0.5 mM EDTA, 0.5 mM DTT, 0.01% Triton X-100, 50 mM KCl, 15 min on ice (agarose 4 °C), pBSK/SmaI competitor in PAGE EMSA; ELISA: same without EDTA, 4 °C, 20 min; settings: protein: recombinant; tags: none stated for pT7-7wtp53 (Methods 3.3 says purified via GST tag); chain copies: 4; label: 5'-32P on Lock-F; lock clamp, Py-rich loop in strand 1; 3' overhang 3 nt on lock strand
T1 sequence (P04637 whole entry, the tested form may be a part): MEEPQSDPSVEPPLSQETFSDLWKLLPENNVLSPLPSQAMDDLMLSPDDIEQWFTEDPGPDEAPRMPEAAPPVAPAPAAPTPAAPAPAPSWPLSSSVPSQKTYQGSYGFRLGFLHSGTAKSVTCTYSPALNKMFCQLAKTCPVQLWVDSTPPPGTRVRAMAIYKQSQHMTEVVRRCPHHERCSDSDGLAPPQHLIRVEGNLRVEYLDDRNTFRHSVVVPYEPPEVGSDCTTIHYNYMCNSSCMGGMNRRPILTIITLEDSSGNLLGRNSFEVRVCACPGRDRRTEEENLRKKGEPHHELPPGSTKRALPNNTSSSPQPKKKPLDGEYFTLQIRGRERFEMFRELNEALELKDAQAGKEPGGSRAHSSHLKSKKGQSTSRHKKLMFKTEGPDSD

[2] = target: T2, p53CD (core domain) (human, UniProt P04637 94-312); assay: EMSA; 50 ng pBSK/SmaI competitor; EMSA: 5 mM Tris-HCl pH 7.6, 0.5 mM EDTA, 0.5 mM DTT, 0.01% Triton X-100, 50 mM KCl, 15 min on ice (agarose 4 °C), pBSK/SmaI competitor in PAGE EMSA; ELISA: same without EDTA, 4 °C, 20 min; settings: protein: recombinant; tags: GST (GST-p53CD, pGEX-4T); chain copies: 4; label: 32P (EMSA); biotin (ELISA); blunt
T2 sequence (P04637 94-312): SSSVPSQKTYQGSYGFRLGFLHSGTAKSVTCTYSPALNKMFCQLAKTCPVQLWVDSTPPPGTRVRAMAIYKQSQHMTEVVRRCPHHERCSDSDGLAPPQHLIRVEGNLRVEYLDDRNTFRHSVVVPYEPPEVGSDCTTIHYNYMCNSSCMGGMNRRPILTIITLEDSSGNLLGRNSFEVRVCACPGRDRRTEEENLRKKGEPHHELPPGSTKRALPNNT

[3] = target: T1, p53 (wild type, full length); assay: EMSA; strongest binder; 75 ng pBSK/SmaI competitor; EMSA: 5 mM Tris-HCl pH 7.6, 0.5 mM EDTA, 0.5 mM DTT, 0.01% Triton X-100, 50 mM KCl, 15 min on ice (agarose 4 °C), pBSK/SmaI competitor in PAGE EMSA; ELISA: same without EDTA, 4 °C, 20 min; settings: protein: recombinant; tags: none stated for pT7-7wtp53 (Methods 3.3 says purified via GST tag); chain copies: 4; label: 32P (EMSA); biotin (ELISA); blunt
[4] = target: p53CT (C-terminal segment) (human, UniProt P04637 320-393); assay: EMSA; 50 ng pBSK/SmaI competitor; EMSA: 5 mM Tris-HCl pH 7.6, 0.5 mM EDTA, 0.5 mM DTT, 0.01% Triton X-100, 50 mM KCl, 15 min on ice (agarose 4 °C), pBSK/SmaI competitor in PAGE EMSA; ELISA: same without EDTA, 4 °C, 20 min; settings: protein: recombinant, tags: GST (GST-p53CT, pGEX-2TK), chain copies: 4, label: 5'-32P on Lock-F (EMSA), 3'-biotin on Lock-F (ELISA), lock clamp, 3' overhang 3 nt on lock strand
Chain of p53CT (C-terminal segment) (P04637 320-393): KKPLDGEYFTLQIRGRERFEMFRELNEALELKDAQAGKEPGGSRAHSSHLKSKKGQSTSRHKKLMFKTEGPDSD

[5] = target: T1, p53 (wild type, full length); assay: EMSA; 75 ng pBSK/SmaI competitor; EMSA: 5 mM Tris-HCl pH 7.6, 0.5 mM EDTA, 0.5 mM DTT, 0.01% Triton X-100, 50 mM KCl, 15 min on ice (agarose 4 °C), pBSK/SmaI competitor in PAGE EMSA; ELISA: same without EDTA, 4 °C, 20 min; settings: protein: recombinant, tags: none stated for pT7-7wtp53 (Methods 3.3 says purified via GST tag), chain copies: 4, label: 5'-32P on Lock-F (EMSA), 3'-biotin on Lock-F (ELISA), lock clamp, 3' overhang 3 nt on lock strand
[6] = target: T2, p53CD (core domain); assay: EMSA; no stable complex; 50 ng pBSK/SmaI; EMSA: 5 mM Tris-HCl pH 7.6, 0.5 mM EDTA, 0.5 mM DTT, 0.01% Triton X-100, 50 mM KCl, 15 min on ice (agarose 4 °C), pBSK/SmaI competitor in PAGE EMSA; ELISA: same without EDTA, 4 °C, 20 min; settings: protein: recombinant, tags: GST (GST-p53CD, pGEX-4T), label: 5'-32P on Lock-F (EMSA), 3'-biotin on Lock-F (ELISA), lock clamp, 3' overhang 3 nt on lock strand
[7] = target: T1, p53 (wild type, full length); assay: ELISA; Kd only in figure; EMSA: 5 mM Tris-HCl pH 7.6, 0.5 mM EDTA, 0.5 mM DTT, 0.01% Triton X-100, 50 mM KCl, 15 min on ice (agarose 4 °C), pBSK/SmaI competitor in PAGE EMSA; ELISA: same without EDTA, 4 °C, 20 min; settings: protein: recombinant; tags: none stated for pT7-7wtp53 (Methods 3.3 says purified via GST tag); chain copies: 4; label: 5'-32P on Lock-F (EMSA); 3'-biotin on Lock-F (ELISA); lock clamp, T loop in strand 1; 3' overhang 3 nt on lock strand
[8] = unpaired (TTC)11 loop in strand 1

B1: FXN-TNB (structured_DNA)
DNA 1: GGGGCCTTAGGTATTTTCTTTATTTTCTTCTTCTTCTTCTTCTTTTTTTTTTTTTTTTGTATTTTTTATGGTACCGCGG
DNA 2: CCGCGGTACCATTACCTAAGGCCCCAAC
binding result [1]: binds

B2: CON (p53CON) (dsDNA)
DNA 1: GACGGTATCGATAAGAGACATGCCTAGACATGCCTCTTGATATCGAATTC
DNA 2: GAATTCGATATCAAGAGGCATGTCTAGGCATGTCTCTTATCGATACCGTC
binding result [2]: binds | binding result [3]: binds

B3: CTGNB (structured_DNA)
DNA 1: GGGGCCTTAGGTACTGCTGCTGCTGCTGCTGCTGCTGCTGCTGCTGATGGTACCGCGG
DNA 2: CCGCGGTACCATTACCTAAGGCCCCAAC
binding result ([4]; (CTG)11 hairpin in strand 1): binds | binding result ([5]; (CTG)11 hairpin in strand 1): binds | binding result ([6]; (CTG)11 hairpin in strand 1): no binding

B4: TTCNB (structured_DNA)
DNA 1: GGGGCCTTAGGTATTCTTCTTCTTCTTCTTCTTCTTCTTCTTCTTCATGGTACCGCGG
DNA 2: CCGCGGTACCATTACCTAAGGCCCCAAC
binding result [4, 8]: binds | binding result [5, 8]: binds | binding result [6, 8]: no binding

B5: TNB (structured_DNA)
DNA 1: GGGGCCTTAGGTATTTTTTTTTTTTTTTTTTTTTTTTTTTTTTTTTATGGTACCGCGG
DNA 2: CCGCGGTACCATTACCTAAGGCCCCAAC
binding result ([4]; T loop in strand 1): binds | binding result [7]: binds | binding result ([6]; T loop in strand 1): no binding
